For one data set, the target named is thrombin (UniProt P00734+P00734). The data set is described as follows: FP.
For the next data set, the target named is T1, FOXM1 (UniProt Q08050).
T1 sequence: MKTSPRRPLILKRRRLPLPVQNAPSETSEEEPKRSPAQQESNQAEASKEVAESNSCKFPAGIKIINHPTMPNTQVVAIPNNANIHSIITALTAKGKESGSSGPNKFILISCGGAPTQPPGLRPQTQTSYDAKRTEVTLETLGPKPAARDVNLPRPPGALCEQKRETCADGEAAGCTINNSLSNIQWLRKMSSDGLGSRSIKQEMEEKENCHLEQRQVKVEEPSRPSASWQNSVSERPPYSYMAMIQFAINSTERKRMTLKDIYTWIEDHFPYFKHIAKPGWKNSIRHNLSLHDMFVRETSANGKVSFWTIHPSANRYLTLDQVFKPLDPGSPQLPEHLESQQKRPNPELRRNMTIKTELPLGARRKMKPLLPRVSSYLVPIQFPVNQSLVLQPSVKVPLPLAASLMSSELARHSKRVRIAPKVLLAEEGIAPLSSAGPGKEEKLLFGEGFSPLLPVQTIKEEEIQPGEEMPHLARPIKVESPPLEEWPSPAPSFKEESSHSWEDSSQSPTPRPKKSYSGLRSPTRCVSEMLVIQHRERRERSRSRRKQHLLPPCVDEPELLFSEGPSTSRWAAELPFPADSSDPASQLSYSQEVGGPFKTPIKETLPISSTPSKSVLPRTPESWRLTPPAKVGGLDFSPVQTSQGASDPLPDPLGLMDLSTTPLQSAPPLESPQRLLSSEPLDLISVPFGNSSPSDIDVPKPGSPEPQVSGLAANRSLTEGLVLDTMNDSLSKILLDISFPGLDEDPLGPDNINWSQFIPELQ
Particulars: PS; cited from earlier work.

pKd: −log10 of the molar value.

Regarding GGTTGGTGTGGTTGG [TBA(9)-2b], in the data set with thrombin (T9 replaced by 5-ethynyl-dU clicked to inactivated N-acyl sulfonamide biotin warhead 2b), the pKd (commonly the Kd on a negative log10 scale, so that one unit is a factor of ten) is 6.28.
With GGTTGGTGTGGTTGG [TBA(3)-2b], in the data set with thrombin (T3 replaced by 5-ethynyl-dU clicked to inactivated N-acyl sulfonamide biotin warhead 2b), the pKd was 6.40.
Regarding “TCACTTCACACCGCATCTCTACGTCCGGTTGCGCTTTCCTTT [FBA]”, in the data set with FOXM1, the pKd was 7.19.
